Protein stability index data for 72 sequences are collected here from the supplement of paper PMC10567573.

± gives the standard deviation.

The series is described as follows: protein stability index of a GFP-peptide fusion (GPS, HEK-293T) (PSI 1-6); higher = more stable.
Where [1] appears, read: treatment: DMSO, c terminus: a fixed tail appended.
The mark [2] stands for this setting: treatment: MLN4924 1 uM, 8 h, c terminus: a fixed tail appended.
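Note: 24-mer peptide tiles fused after GFP, lentivirally expressed, FACS-sorted into six equal bins by GFP/DsRed ratio, decoded by Illumina sequencing, PSI is the read-weighted mean bin number.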

Consider MNYRRLGGGVGVIKMTHCESHIW [KLHL20], for which the protein stability index by setting is: (treatment: DMSO, c terminus: native) 2.75 ± 0.32; (treatment: MLN4924 1 uM, 8 h, c terminus: native) 2.34 ± 0.31.

Regarding MPDYMILQELKKLKNSNYESIQQT [PPTC7], the protein stability index stood at 2.5 ± 0.41 under setting [1] and 2.93 ± 0.39 under setting [2].

For the sequence MPRAPKRQRCMPEEDLQSQSETQG [MAGEA10], the protein stability index is, setting by setting: under setting [1], 5.02 ± 0.42; under setting [2], 5.05 ± 0.12.

Consider MQVDKKRVYLATDDPSLLKEAKTK [FUT8], for which the protein stability index was determined as 4.06 ± 0.21 under setting [1] and 3.92 ± 0.32 under setting [2].

Turning to MQVNPISKRMGPMTVVRMDASVQP [RHOBTB1], the protein stability index worked out at 3.48 ± 0.19 under setting [1] and 3.43 ± 0.2 under setting [2].

In the case of MRQRISRVEESALRALREKLFAHS [PPEF2], the protein stability index under setting [1] turned out to be 2.72 ± 0.24 and the protein stability index under setting [2] amounted to 2.71 ± 0.33.

On to MSDKYHDSDEATAARLLFNMAGVT [DCTD], for which the protein stability index stood at 3.53 ± 0.25 under setting [1] and 3.54 ± 0.36 under setting [2].

MSPSLQEGAQLGENKPSTCSFSIE [HESX1]: the protein stability index by setting is: under setting [1], 4.95 ± 0.3; under setting [2], 5.07 ± 0.18.

Sequence MSTGPIAESWCYTQVKVVKFSYMW [SPOPL] displayed a protein stability index under setting [1] of 2.41 ± 0.08 and a protein stability index under setting [2] of 3.35 ± 1.5.

Regarding MSTIGSFEGFQAVSLKQEGDDQPS [TPRG1], the protein stability index is 5.22 ± 0.082 under setting [1] and 5.22 ± 0.078 under setting [2].

Regarding MTRNDVLTGLQLKLGPALKIYEYH [SAMD13], the protein stability index was found to be 2.24 ± 0.42 under setting [1] and 2.22 ± 0.3 under setting [2].

Take MTTALQGQRLAVCVPAHPPPCAWA [CTBP1-DT]: the protein stability index runs as follows: under setting [1], 2.43 ± 0.2; under setting [2], 2.56 ± 0.14.

For MVEADRPGKLFIGGLNTETNEKAL [RBMX], the protein stability index stood at 4.75 ± 0.096 under setting [1] and 4.39 ± 0.48 under setting [2].

Regarding MVGLILGPFGVNHGVELHSDVIEY [PCMTD2], the protein stability index is, setting by setting: under setting [1], 3 ± 1.1; under setting [2], 2.82 ± 0.64.

On to MVLLIMKLDQLDQDIENALSTSSS [DLC1], for which the protein stability index by setting is: under setting [1], 2.69 ± 0.58; under setting [2], 2.49 ± 0.45.

For the sequence MVSNPVHGLPFLPGTSFKDSTKTA [EFHC1], the protein stability index is, setting by setting: under setting [1], 3.87 ± 0.24; under setting [2], 3.97 ± 0.25.

As for MWDSKKIGLRQHHCRKCGKAVCGK [WDFY2], the protein stability index is, setting by setting: under setting [1], 3.31 ± 0.15; under setting [2], 3.58 ± 0.72.

On to MYTPAYGDFDFDEVKFPNASDMFR [MYORG], for which the protein stability index by setting is: under setting [1], 3.1 ± 0.3; under setting [2], 3.16 ± 0.26.

For NAANRTGYVPSNYVERKNSLKKGS [NCK2], the protein stability index by setting is: under setting [1], 4.33 ± 0.3; under setting [2], 4.45 ± 0.18.

In the case of NADGSYLCQCHEGFALNPDKKTCT [MATN2], the protein stability index amounted to 4.06 ± 0.14 under setting [1] and 4.2 ± 0.29 under setting [2].

NAKKLSMYGVDLHHAKDSEGVEIM [EPB41L3]: the protein stability index by setting is: under setting [1], 3.66 ± 0.8; under setting [2], 3.61 ± 0.72.

Take NDAYGPPSNFLEIDVSNPQTVGVG [SNX3]: the protein stability index runs as follows: under setting [1], 4.68 ± 0.35; under setting [2], 4.59 ± 0.08.

Consider NEEETPSCMASLWTAPLVMRTTNL [CDC25A], for which the protein stability index reads like this: under setting [1], 3.22 ± 0.18; under setting [2], 3.3 ± 0.11.

As to NEVLSSDILPRWAIIGWLLTTCTS [INTS3], the protein stability index was 2.99 ± 0.82 under setting [1] and 2.91 ± 0.49 under setting [2].

Take NFGEFKCSDSDKKCHLWTAMDLGF [CLCN6]: the protein stability index by setting is: under setting [1], 2.19 ± 0.32; under setting [2], 2.34 ± 0.46.

In the case of NGDGAFLHDNHEQMPTEIEFPESR [ZNF649], the protein stability index runs as follows: under setting [1], 5.31 ± 0.36; under setting [2], 5.19 ± 0.45.

Turning to NGNRRRRKLRKTVNGDGSRENGNN [PHTF1], the protein stability index by setting is: under setting [1], 4.93 ± 0.43; under setting [2], 5.12 ± 0.19.

Consider NGVLGLSRLLFFLLGFLRIRVRGQ [LPCAT4], for which the protein stability index was 2.2 ± 0.34 under setting [1] and 2.44 ± 0.25 under setting [2].

With NHDIRTANDGDYWRLLNPGEYVVT [CPXM2], the protein stability index runs as follows: under setting [1], 2.96 ± 0.21; under setting [2], 3.25 ± 0.31.

Turning to NHEALRQAKQEMNESRRQIQSLTC [PRPH], the protein stability index by setting is: under setting [1], 4.47 ± 0.18; under setting [2], 4.38 ± 0.15.

Consider NHEIMPGGSVNITCVAVGSPMPYV [PTPRD], for which the protein stability index reads like this: under setting [1], 2.15 ± 0.8; under setting [2], 2.28 ± 0.16.

In the case of NHEQEVNTLRCQLGDRLNVEVDAA [KRT33B], the protein stability index was 4.94 ± 0.11 under setting [1] and 5.16 ± 0.22 under setting [2].

For NHLPPQTKRSSRNPVFQDSWDTES [FAM104A], the protein stability index amounted to 4.48 ± 0.29 under setting [1] and 4.59 ± 0.46 under setting [2].

Sequence NIMTQNVERILARGENLEHLRNKT [VAMP8] displayed a protein stability index under setting [1] of 3.46 ± 0.29 and a protein stability index under setting [2] of 3.93 ± 0.068.

As to NISELKRTFLETSTDTAVTNEWEK [EPB41L3], the protein stability index was determined as 4.82 ± 0.25 under setting [1] and 4.686 ± 0.034 under setting [2].

With NLENPMRRIHSLPQKLLGCSPALK [CDC25A], the protein stability index was 2.64 ± 0.23 under setting [1] and 3.11 ± 0.32 under setting [2].

For NLTSPASITFTTGLEAPRDLEAKE [TNXB], the protein stability index amounted to 5.21 ± 0.51 under setting [1] and 5.51 ± 0.36 under setting [2].

In the case of NLVAGCLQLNARSFMMGQGGEAAH [NEUROD6], the protein stability index is, setting by setting: under setting [1], 2.34 ± 0.22; under setting [2], 2.02 ± 0.11.

Regarding NNEIPDCYTFSVLITFDNKAHSGR [MCOLN1], the protein stability index runs as follows: under setting [1], 2.34 ± 0.31; under setting [2], 2.42 ± 0.53.

For the sequence NNKYSYTSNSDDNMLKNIELFDKL [KCTD10], the protein stability index is 3.9 ± 0.068 under setting [1] and 3.9 ± 0.26 under setting [2].

For NNQYSEGVQREAQRIALRLGNGND [KMT2E], the protein stability index runs as follows: under setting [1], 4.51 ± 0.24; under setting [2], 4.63 ± 0.18.

On to NNSIKDLTDGHFENILADNSVNDQ [SERPINB5], for which the protein stability index reads like this: under setting [1], 5.32 ± 0.12; under setting [2], 5.26 ± 0.25.

For the sequence NQIMPKAGLLIIVLAIIAREGDCA [MAGEA3], the protein stability index runs as follows: under setting [1], 3.02 ± 0.55; under setting [2], 3.02 ± 0.76.

Regarding NQLQTKVAVLEQEIKDKDQLVLRT [SASS6], the protein stability index was 4.65 ± 0.21 under setting [1] and 4.74 ± 0.27 under setting [2].

Turning to NSDDSYTCECLEGFRLAEDGKRCR [MATN2], the protein stability index came out at 3.54 ± 0.34 under setting [1] and 4.12 ± 0.67 under setting [2].

In the case of NSIKNEKLEWAIDEDELRKSLSEL [PSD2], the protein stability index was determined as 4.81 ± 0.15 under setting [1] and 4.72 ± 0.079 under setting [2].

NTELEVKIRDWYQRQAPGPARDYS [KRT17] showed a protein stability index under setting [1] of 3.4 ± 0.35 and a protein stability index under setting [2] of 3.48 ± 0.41.

Regarding NVLGAQLDVEAAHSEILKYFQSVT [STX5], the protein stability index by setting is: under setting [1], 2.76 ± 0.25; under setting [2], 2.88 ± 0.33.

On to NVNETDDWGRTALHYAAASDMDRN [ANKRD44], for which the protein stability index is, setting by setting: under setting [1], 4.69 ± 0.15; under setting [2], 4.77 ± 0.33.

As for NVYRKRRKYFADLAMNYKHGDPIP [TPH1], the protein stability index is, setting by setting: under setting [1], 2.75 ± 0.13; under setting [2], 2.9 ± 0.26.

For NYCPQQTKITSAFKYINTVISCTI [EDNRA], the protein stability index under setting [1] came out at 3.3 ± 0.65 and the protein stability index under setting [2] came out at 2.77 ± 0.18.

NYDKLSRSIRQYYKKGIIRKPDIS [SPDEF] showed a protein stability index under setting [1] of 2.55 ± 0.21 and a protein stability index under setting [2] of 2.74 ± 0.34.

Turning to PADCKRKEEAGAPGGGAGMAAGFP [CEBPB], the protein stability index reads like this: under setting [1], 5.12 ± 0.35; under setting [2], 5.29 ± 0.098.

On to PAEAEGAAQELENQMKERQGLFFD [TMEM120A], for which the protein stability index was 5.33 ± 0.1 under setting [1] and 5.26 ± 0.34 under setting [2].

With PALHPAHAPQISYTGPSSSGRFAG [NCK2], the protein stability index under setting [1] is 4.02 ± 0.15 and the protein stability index under setting [2] came to 4.15 ± 0.12.

PAPCADGPAGGLADLSSGSSGEDD [PWWP2B]: the protein stability index was found to be 5.51 ± 0.23 under setting [1] and 5.66 ± 0.15 under setting [2].

Take PAPSRMQMPQGNPLLLSHTLQELL [SNX8]: the protein stability index runs as follows: under setting [1], 3.08 ± 0.21; under setting [2], 3.1 ± 0.22.

Turning to PASDLEAALEAAGEGLNVIQQTTR [NANOGP8], the protein stability index is 4.93 ± 0.17 under setting [1] and 4.95 ± 0.44 under setting [2].

Consider PAWGHCFYRLYQDLETHRLPCTSR [SCNN1D], for which the protein stability index was determined as 2.32 ± 0.12 under setting [1] and 2.62 ± 0.32 under setting [2].

Regarding PDAPDHTSETSHSPLYADPYTPPA [PLEKHN1], the protein stability index under setting [1] was 5.22 ± 0.3 and the protein stability index under setting [2] came out at 5.01 ± 0.28.

In the case of PDDLLTTLDDTCDLFAPLVQETNK [ATF4], the protein stability index by setting is: under setting [1], 5.12 ± 0.23; under setting [2], 5.14 ± 0.22.

As to PDIMNLLIKSGAHFDATNLHKQTA [FEM1C], the protein stability index under setting [1] was 2.39 ± 0.14 and the protein stability index under setting [2] worked out at 2.29 ± 0.26.

With PDNCEMFLNFNGMKLFLDCLKEFP [ZER1], the protein stability index by setting is: under setting [1], 2.25 ± 0.18; under setting [2], 2.19 ± 0.33.

Consider PDPEPPPVTPQVGEGRKSRKFSRL [SMG5], for which the protein stability index is 3.98 ± 0.27 under setting [1] and 4.14 ± 0.45 under setting [2].

Consider PEDLQTDLAKLVDQQNPTLGETPE [ZNF449], for which the protein stability index runs as follows: under setting [1], 5.62 ± 0.23; under setting [2], 5.73 ± 0.2.

Take PESRSLPSSPLRLGSYKAQKTSRS [PPEF2]: the protein stability index under setting [1] turned out to be 5.29 ± 0.16 and the protein stability index under setting [2] amounted to 5.14 ± 0.24.

On to PFDLEQQWQDLMSIMEMQAMEVNT [NFE2L1], for which the protein stability index was found to be 3.87 ± 0.17 under setting [1] and 4.03 ± 0.28 under setting [2].

On to PFSSHTYSQASELPTDAVDCMSRE [FBXO34], for which the protein stability index worked out at 5.25 ± 0.29 under setting [1] and 5.01 ± 0.075 under setting [2].

On to PGGGRLLLSTSLDAKDELEERLER [INTS3], for which the protein stability index by setting is: under setting [1], 4.94 ± 0.3; under setting [2], 4.84 ± 0.15.

Regarding PGPGIGGDAHFDEDERWTNNFREY [MMP1], the protein stability index runs as follows: under setting [1], 4.14 ± 0.39; under setting [2], 4.2 ± 0.35.

Turning to PHLRSFCETCVGSWSIQMRQHHHQ, the protein stability index under setting [1] was 2.4 ± 0.25 and the protein stability index under setting [2] is 2.34 ± 0.23.

As for PHRMDRRLLALIYLAHASDVLENA [GOLPH3], the protein stability index is, setting by setting: under setting [1], 2.55 ± 0.27; under setting [2], 2.34 ± 0.21.
